Source: paper PMC6428923 (Biophysical Journal, 2019)
Where no end group is shown, it is not given here. The star is where a group is joined. Farnesyl = CC(C)=CCC/C(C)=C/CC/C(C)=C/C*

Assays:
[1] = target: calmodulin (CaM), full-length, amino acids 2-148 (human, UniProt P0DP23 2-148); assay: ITC
[2] = target: calmodulin (CaM), full-length, amino acids 2-148 (human, UniProt P0DP23 2-148); assay: ITC; remark: listed apart in the source

Binder | Kd [1] | Kd [2]
HKEKMSKDGKKKKKKSKTKC(Farnesyl)-OMe [HVR-FMe (hypervariable region of KRAS4b, farnesylated and carboxy-methylated)] |  | 0.3 µM
KSKTKC(Farnesyl)-OMe [KSKTKC-FMe] | 0.4 µM | 

Second part, the binder after the results:

Kd [1] | Kd [2] | Binder
3 µM |  | KSKTKC(geranyl) (not fully specified (C-terminus); also: methylated (site not given here)) [KSKTKC-geranyl methylated (KSKTKC-GMe)]
30 µM |  | KSKTKC (not fully specified; cysteine with a five-carbon prenyl group, methylated (PMe)) [KSKTKC-prenyl methylated (KSKTKC-PMe)]
